Biological target: T1, full-length Spike of SARS-CoV-2 on transfected 293T cells (SARS-CoV-2, UniProt P0DTC2)
T1 construct: also called Spike-expressing cells; Wuhan-hu-1 Spike
Test: flow cytometry on cells
Settings: one partner purified

B1: Ab159 (antibody, V domains shown)
VH: QVQLVESGGGLVKPGGSLRLSCAASGFTFNNAWMSWVRQAPGKGLEWVGRIKSKTDGGTTDYAAPVKGRFTFSRDDSKNTLYLQMSSLKTEDTALYYCTTADYDILTGTPASPYWGQGTLVTVSS
VL: DIQMTQSPSSLSASVGDRVTITCRASQSITNYLNWYQQKPGKAPKFLIYAASSLQGGVPSRFRGSGSGTDFTLTISSLQPEDFATYYCQQTYSTLWTFGQGTKVEIK
notes: copies: 2 + 2
binding result: binds

From publication PMC9664764 (iScience, 2022)
